Measured values: article PMC6265457 (Nucleic Acids Research, 2018)
Each block holds one binder with its values, some of them ahead of it.

Tests used:
Assay in all cases: pull-down
FLAG-Swd2 = target: T1, FLAG-Swd2 (S. cerevisiae, UniProt P36104 1-329)
T1 sequence: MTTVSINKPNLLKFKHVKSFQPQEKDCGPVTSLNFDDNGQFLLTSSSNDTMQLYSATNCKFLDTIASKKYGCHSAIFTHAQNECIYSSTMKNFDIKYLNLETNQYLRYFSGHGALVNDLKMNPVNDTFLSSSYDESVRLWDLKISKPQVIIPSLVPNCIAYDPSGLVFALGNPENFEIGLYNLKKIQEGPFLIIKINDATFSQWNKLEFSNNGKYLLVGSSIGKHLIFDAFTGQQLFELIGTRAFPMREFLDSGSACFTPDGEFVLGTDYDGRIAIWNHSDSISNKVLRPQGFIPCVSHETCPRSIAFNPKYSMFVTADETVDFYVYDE

FLAG-Spp1 (wild type) = target: T2, FLAG-Spp1 (wild type) (S. cerevisiae, UniProt Q03012 1-353)
T2 sequence: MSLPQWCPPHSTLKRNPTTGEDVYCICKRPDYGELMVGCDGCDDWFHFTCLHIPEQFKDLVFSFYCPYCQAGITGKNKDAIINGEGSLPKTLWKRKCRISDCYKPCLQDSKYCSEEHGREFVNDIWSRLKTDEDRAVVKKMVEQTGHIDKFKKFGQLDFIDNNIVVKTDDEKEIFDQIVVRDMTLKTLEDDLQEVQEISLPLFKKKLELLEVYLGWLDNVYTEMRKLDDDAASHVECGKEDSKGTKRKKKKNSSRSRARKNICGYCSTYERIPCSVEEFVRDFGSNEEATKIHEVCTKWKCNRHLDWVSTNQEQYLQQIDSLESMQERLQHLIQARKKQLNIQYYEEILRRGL

FLAG-Swd1 = target: T3, FLAG-Swd1 (S. cerevisiae, UniProt P39706 1-426)
T3 sequence: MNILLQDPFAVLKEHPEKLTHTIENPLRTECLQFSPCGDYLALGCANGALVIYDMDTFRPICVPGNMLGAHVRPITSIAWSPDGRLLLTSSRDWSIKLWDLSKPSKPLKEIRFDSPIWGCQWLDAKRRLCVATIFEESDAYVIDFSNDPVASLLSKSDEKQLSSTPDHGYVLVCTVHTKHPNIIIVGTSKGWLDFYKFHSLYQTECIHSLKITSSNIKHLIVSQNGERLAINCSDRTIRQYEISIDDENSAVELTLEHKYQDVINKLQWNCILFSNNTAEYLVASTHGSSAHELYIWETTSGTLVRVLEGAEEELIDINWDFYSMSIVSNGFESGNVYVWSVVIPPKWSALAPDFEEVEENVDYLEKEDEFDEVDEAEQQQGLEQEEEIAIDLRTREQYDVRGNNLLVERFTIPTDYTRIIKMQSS

binding result (FLAG-Swd2): binds
B1: GST-tagged Set1 fragment, residues 124–229 (domain or fragment)
chain: TESALLLQQRPPSVLRYNTDNLKSKFHYFDPIKGEFFNKDKMLSWKATDKEFSETGYYVVKELQDGQFKFKIKHRHPEIKASDPRNENGIMTSGKVATHRKCRNSL

binding result (FLAG-Spp1 (wild type)): binds
B2: GST-tagged n-SET fragment (Set1 residues 762–937) (domain or fragment)
chain: MDLQNAIKDEEDMLILKQLLSTYTPTVTPETSAALEYKIWQSRRKVLEEEKASDWQIELNGTLFDSELQPGSSFKAEGFRKIADKLKINYLPHRRRVHQPLNTVNIHNERNEYTPELCQREESSNKEPSDSVPQEVSSSRDNRASNRRFQQDIEAQKAAIGTESELLSLNQLNKRK

binding result (FLAG-Swd1): binds
B3: GST-tagged Set1 fragment, residues 1–123 (domain or fragment)
chain: MSNYYRRAHASSGSYRQPQEQPQYSRSGHYQYSNGHSHQQYSSQYNQRRRYNHNDGTRRRYNDDRPHSSNNASTRQYYATNNSQSGPYVNKKSDISSRRGMSQSRYSNSNVHNTLASSSGSLP
